Experimental data as given in the Human Domainome abundance scans (Beltran et al. 2025).
± gives the uncertainty stated by the source.

B1: Bromodomain adjacent to zinc finger domain protein 2B, residues 1927 to 1982; numbered along this chain, Q9UIF8 (parent)
chain: KSIMKVYCQICRKGDNEELLLLCDGCDKGCHTYCHRPKITTIPDGDWFCPACIAKA

Variants of: B1
Assay: abundance fitness (aPCA) (normalised: wild type 0, dead -1); higher = more abundant; growth selection in yeast, the domain comes from the species named
Conditions: Homo sapiens

Row | Variant | abundance fitness
1 | L19Q | 0.137 ± 0.17
2 | L19R | -0.078 ± 0.097
3 | L19S | -0.03 ± 0.094
4 | L19T | -0.1 ± 0.11
5 | L19V | -0.011 ± 0.074
6 | L19W | -0.03 ± 0.11
7 | L19Y | -0.067 ± 0.18
8 | L20A | -0.227 ± 0.076
9 | L20C | -0.011 ± 0.14
10 | L20D | -0.566 ± 0.14
11 | L20E | -0.34 ± 0.11
12 | L20F | 0.058 ± 0.13
13 | L20G | -0.509 ± 0.11
14 | L20K | -0.138 ± 0.14
15 | L20M | -0.009 ± 0.13
16 | L20N | -0.337 ± 0.12
17 | L20P | -0.421 ± 0.094
18 | L20Q | -0.34 ± 0.14
19 | L20R | -0.318 ± 0.093
20 | L20S | -0.308 ± 0.092
21 | L20T | -0.094 ± 0.096
22 | L20V | -0.069 ± 0.079
23 | L20W | -0.354 ± 0.14
24 | L21A | -0.117 ± 0.1

Row | Variant | abundance fitness
25 | L21D | -0.346 ± 0.12
26 | L21E | -0.336 ± 0.14
27 | L21F | -0.3 ± 0.13
28 | L21G | -0.224 ± 0.083
29 | L21H | -0.37 ± 0.15
30 | L21I | -0.072 ± 0.15
31 | L21K | -0.005 ± 0.12
32 | L21M | -0.076 ± 0.13
33 | L21N | -0.206 ± 0.12
34 | L21P | -0.524 ± 0.12
35 | L21S | -0.2 ± 0.08
36 | L21T | -0.042 ± 0.097
37 | L21W | -0.248 ± 0.1
38 | L21Y | -0.374 ± 0.11
39 | L22A | 0.032 ± 0.083
40 | L22C | 0.008 ± 0.14
41 | L22E | 0.029 ± 0.092
42 | L22G | -0.006 ± 0.072
43 | L22H | -0.039 ± 0.17
44 | L22I | -0.054 ± 0.2
45 | L22K | 0.144 ± 0.12
46 | L22M | -0.067 ± 0.13
47 | L22N | -0.051 ± 0.15
48 | L22P | -0.126 ± 0.14

Row | Variant | abundance fitness
49 | L22S | 0.01 ± 0.085
50 | L22T | -0.024 ± 0.12
51 | L22V | -0.034 ± 0.085
52 | L22Y | -0.174 ± 0.17
53 | C23Y | -0.42 ± 0.18
54 | D24A | 0.048 ± 0.11
55 | D24C | 0.073 ± 0.15
56 | D24E | 0.219 ± 0.14
57 | D24F | -0.273 ± 0.18
58 | D24G | 0.155 ± 0.095
59 | D24H | -0.063 ± 0.17
60 | D24K | -0.005 ± 0.13
61 | D24L | -0.034 ± 0.087
62 | D24M | 0.026 ± 0.13
63 | D24N | 0.113 ± 0.12
64 | D24P | -0.05 ± 0.11
65 | D24Q | 0.08 ± 0.14
66 | D24R | -0.061 ± 0.084
67 | D24S | 0.053 ± 0.089
68 | D24T | 0.06 ± 0.12
69 | D24Y | -0.669 ± 0.14
70 | G25A | -0.171 ± 0.084
71 | G25D | -0.192 ± 0.093
72 | G25E | -0.014 ± 0.1

Row | Variant | abundance fitness
73 | G25F | -0.33 ± 0.19
74 | G25H | -0.124 ± 0.17
75 | G25I | -0.45 ± 0.26
76 | G25K | -0.031 ± 0.13
77 | G25L | -0.266 ± 0.09
78 | G25N | -0.16 ± 0.13
79 | G25P | -0.551 ± 0.1
80 | G25Q | 0.003 ± 0.13
81 | G25R | -0.096 ± 0.072
82 | G25S | -0.149 ± 0.081
83 | G25T | -0.09 ± 0.1
84 | G25W | -0.251 ± 0.096
85 | G25Y | -0.221 ± 0.31
86 | C26A | -0.598 ± 0.11
87 | C26D | -0.676 ± 0.19
88 | C26E | -0.676 ± 0.12
89 | C26F | -0.969 ± 0.3
90 | C26G | -0.572 ± 0.076
91 | C26H | -1.04 ± 0.27
92 | C26I | -0.673 ± 0.4
93 | C26K | -0.744 ± 0.14
94 | C26L | -0.819 ± 0.088
95 | C26N | -0.753 ± 0.2
96 | C26P | -0.75 ± 0.14

Row | Variant | abundance fitness
97 | C26Q | -0.711 ± 0.15
98 | C26R | -0.674 ± 0.069
99 | C26S | -0.616 ± 0.089
100 | C26T | -0.678 ± 0.11
101 | C26V | -0.612 ± 0.1
102 | C26W | -0.931 ± 0.12
103 | C26Y | -0.706 ± 0.13
104 | D27A | -0.112 ± 0.083
105 | D27C | -0.187 ± 0.11
106 | D27E | 0.109 ± 0.12
107 | D27G | 0.023 ± 0.065
108 | D27K | -0.001 ± 0.17
109 | D27M | -0.128 ± 0.19
110 | D27N | -0.096 ± 0.11
111 | D27P | -0.173 ± 0.12
112 | D27R | -0.127 ± 0.074
113 | D27S | -0.099 ± 0.09
114 | D27T | -0.08 ± 0.11
115 | D27V | -0.222 ± 0.084
116 | D27W | -0.069 ± 0.088
117 | D27Y | -0.085 ± 0.13
118 | K28A | -0.085 ± 0.079
119 | K28C | -0.158 ± 0.13
120 | K28D | -0.055 ± 0.13

Row | Variant | abundance fitness
121 | K28E | 0.034 ± 0.11
122 | K28F | 0.094 ± 0.14
123 | K28G | -0.02 ± 0.079
124 | K28H | 0.04 ± 0.2
125 | K28I | -0.329 ± 0.15
126 | K28L | -0.025 ± 0.097
127 | K28M | -0.002 ± 0.12
128 | K28N | -0.047 ± 0.14
129 | K28P | -0.755 ± 0.15
130 | K28Q | 0.094 ± 0.19
131 | K28S | -0.089 ± 0.087
132 | K28T | -0.026 ± 0.11
133 | K28W | 0.008 ± 0.1
134 | K28Y | -0.035 ± 0.16
135 | G29A | -0.061 ± 0.086
136 | G29C | 0.004 ± 0.11
137 | G29D | -0.378 ± 0.12
138 | G29E | -0.078 ± 0.1
139 | G29F | -0.035 ± 0.18
140 | G29H | -0.167 ± 0.17
141 | G29I | 0.084 ± 0.22
142 | G29L | -0.149 ± 0.074
143 | G29M | -0.279 ± 0.12
144 | G29N | -0.013 ± 0.16

Row | Variant | abundance fitness
145 | G29P | -0.321 ± 0.11
146 | G29Q | -0.053 ± 0.11
147 | G29R | -0.075 ± 0.064
148 | G29S | -0.019 ± 0.074
149 | G29T | -0.088 ± 0.11
150 | G29V | 0.002 ± 0.079
151 | G29W | -0.147 ± 0.079
152 | G29Y | -0.093 ± 0.15
153 | C30A | -0.101 ± 0.08
154 | C30D | -0.238 ± 0.11
155 | C30E | 0.034 ± 0.083
156 | C30F | -0.002 ± 0.11
157 | C30G | -0.009 ± 0.063
158 | C30H | -0.016 ± 0.15
159 | C30I | 0.15 ± 0.14
160 | C30K | -0.076 ± 0.099
161 | C30L | -0.064 ± 0.068
162 | C30M | 0.069 ± 0.09
163 | C30N | -0.208 ± 0.13
164 | C30P | -0.459 ± 0.12
165 | C30Q | 0.024 ± 0.11
166 | C30R | -0.023 ± 0.064
167 | C30S | -0.011 ± 0.077
